In the supplement of paper PMC7877785:
± gives the uncertainty stated by the source.

Assay: self-splicing fitness, log relative to wild type (ln ratio); higher = more splicing; Tetrahymena group I intron in knt gene, E. coli kanamycin selection, DiMSum; sequences stand for … in CUCUCU…GGAGGGAAAAGUUAUCAGGCAUGCACCUGGUAGCUAGUCUUUAAACCAAUAGAUUGCAUCGGUUUAAAAGGCAAGACCGUCAAAUUGCGGGAAAGGGGUCAACAGCCGUUCAGUACCAAGUCUCAGGGGAAACUUUGAGAUGGCCUUGCAAAGGGUAUGGUAAUAAGCUGACGGACAUGGUCCUAACCACGCAGCCAAGUCCUAAGUCAACAGAUCUUCUGUUGAUAUGGAUGCAGUUCACAGACUAAAUGUCGGUCGGGGAAGAUGUAUUCUUCUCAUAAGAUAUAGUCGGACCUCUCCUUAAUGGGAGCUAGCGGAUGAAGUGAUGCAACACUGGAGCCGCUGGGAACUAAUUUGUAUGCGAAAGUAUAUUGAUUAGUUUUGGAGUACUCGUGGUCG
How it was run: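 A randomised library covering all eight P1ex-region intron nucleotides was built with the intron in the knt kanamycin-resistance gene on pET-22b(+) and held in E. coli BL21(DE3). Cells were grown overnight at 37°C or 30°C on LB agar, with or without 25 μg/mL kanamycin, plus 100 μg/mL carbenicillin, 50 μM IPTG and 0.2% rhamnose, and pooled colonies were amplicon-sequenced on an Illumina HiSeq 2500. DiMSum fitness is the error-weighted combination of wild-type-normalised replicate fold changes, kanamycin versus none.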

Sequence	self-splicing fitness (ln) (30 °C)	self-splicing fitness (ln) (37 °C)
UGGCAGCAAUAUUACGGGCG	0.162 ± 0.071	0.586 ± 0.1
UGGCAGCAAUAUUACGGGCU	-3.06 ± 0.16	-2.02 ± 0.15
UGGCAGCAAUAUUACGGGUC	-3.28 ± 0.29	-1.28 ± 0.28
UGGCAGCAAUAUUACGGUUU	-0.212 ± 0.061	-0.422 ± 0.078
UGGCAGCAAUAUUACGUGUU	-3.93 ± 0.19	-2.2 ± 0.12
UGGCAGCAAUAUUACGUUCC	-2.02 ± 0.17	-1.09 ± 0.18
UGGCAGCAAUAUUACGUUCU	0.076 ± 0.06	0.0497 ± 0.069
UGGGAGCAAUAUUACGAGUA	-3.85 ± 0.43	-2.59 ± 0.44
UGGGAGCAAUAUUACGCCAU	-3.45 ± 0.33	-0.288 ± 0.26
UGGGAGCAAUAUUACGCGCG	-1.51 ± 0.3	-0.924 ± 0.35
UGGGAGCAAUAUUACGCUUU	–	-2.01 ± 0.31
UGGGAGCAAUAUUACGGUUA	-3.22 ± 0.37	-1.65 ± 0.16
UGGGAGCAAUAUUACGGUUU	-3.58 ± 0.16	-3.35 ± 0.23
UGGGAGCAAUAUUACGUGAG	-2.33 ± 0.18	-1.14 ± 0.14
UGGUAGCAAUAUUACGAAAC	-4.02 ± 0.42	-2.42 ± 0.45
UGGUAGCAAUAUUACGACGA	-0.462 ± 0.14	1.24 ± 0.19
UGGUAGCAAUAUUACGACUU	-0.197 ± 0.16	0.212 ± 0.16
UGGUAGCAAUAUUACGCCCA	-0.775 ± 0.21	-1.14 ± 0.23
UGGUAGCAAUAUUACGCCGG	-1.3 ± 0.12	-0.73 ± 0.13

Sequence	self-splicing fitness (ln) (30 °C)	self-splicing fitness (ln) (37 °C)
UGGUAGCAAUAUUACGCGGG	-2.93 ± 0.2	-2.47 ± 0.2
UGGUAGCAAUAUUACGCGUA	-1.26 ± 0.24	-1.56 ± 0.27
UGGUAGCAAUAUUACGCUAG	-2.07 ± 0.13	-1.82 ± 0.16
UGGUAGCAAUAUUACGCUGU	-3.24 ± 0.19	-2.12 ± 0.17
UGGUAGCAAUAUUACGGAAA	-1.86 ± 0.28	-1.81 ± 0.24
UGGUAGCAAUAUUACGGAUA	-1.92 ± 0.24	-2.72 ± 0.27
UGGUAGCAAUAUUACGGGAA	-2.02 ± 0.22	-1.6 ± 0.19
UGGUAGCAAUAUUACGGUAU	-3.64 ± 0.32	-1.87 ± 0.4
UGGUAGCAAUAUUACGUAGA	-2.54 ± 0.17	-1.16 ± 0.14
UGGUAGCAAUAUUACGUAGG	-1.25 ± 0.14	-1.35 ± 0.25
UGGUAGCAAUAUUACGUAUC	–	-2.38 ± 0.45
UGGUAGCAAUAUUACGUCAG	-2.07 ± 0.19	-0.266 ± 0.15
UGGUAGCAAUAUUACGUCGA	-0.768 ± 0.1	0.144 ± 0.1
UGGUAGCAAUAUUACGUCUA	-0.44 ± 0.096	0.358 ± 0.12
UGGUAGCAAUAUUACGUGAC	-3.97 ± 0.27	-1.05 ± 0.2
UGGUAGCAAUAUUACGUGAU	-2.76 ± 0.25	-1.34 ± 0.16
UGGUAGCAAUAUUACGUGCG	-0.612 ± 0.12	-0.415 ± 0.15
UGGUAGCAAUAUUACGUUCA	-0.227 ± 0.11	-0.354 ± 0.14
UGUAAGCAAUAUUACGAACU	-0.349 ± 0.12	-0.682 ± 0.12
